Source: the supplement of paper PMC11811203

B1: THAP1; numbered along this chain (parent)
chain: MVQSCSAYGCKNRYDKDKPVSFHKFPLTRPSLCKEWEAAVRRKNFKPTKYSSICSEHFTPDCFKRECNNKLLKENAVPTIFLCTEPHDKKEDLLEPQEQLPPPPLPPPVSQVDAAIGLLMPPLQTPVNLSVFCDHNYTVEDTMHQRKRIHQLEQQVEKLRKKLKTAQQRCRRQERQLEKLKEVVHFQKEKDDVSERGYVILPNDYFEIVEVPA

Variants of: B1
Assay: THAP1 transcriptional activity (GFP+/GFP- enrichment relative to wild-type constructs) (ratio to WT); higher = more THAP1 activity (PSMB5 reporter activation)
Details: with PSMB5 promoter-GFP reporter
Protocol: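 Deep mutational scan of human THAP1. Site-saturation single amino acid variant library (residues 2-213) was expressed by lentivirus at MOI ~0.3 in THAP1-knockout HEK-293T cells carrying an endogenous PSMB5 promoter-GFP knock-in reporter. Five days post-transduction, BFP+ cells were FACS-sorted into GFP dim and GFP bright populations and variants were counted by Illumina sequencing. Activity is the GFP-bright/GFP-dim read fold change, mean of 2 replicates, divided by the mean fold change of wild-type (synonymous) constructs in the same screen pool; WT = 1.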

Variant | THAP1 transcriptional activity
MVQSDSAYGCKNRYDKDKPVSFHKFPLTRPSLCKEWEAAVRRKNFKPTKYSSICSEHFTPDCFKRECNNKLLKENAVPTIFLCTEPHDKKEDLLEPQEQLPPPPLPPPVSQVDAAIGLLMPPLQTPVNLSVFCDHNYTVEDTMHQRKRIHQLEQQVEKLRKKLKTAQQRCRRQERQLEKLKEVVHFQKEKDDVSERGYVILPNDYFEIVEVPA [C5D] | 0.262
MVQSFSAYGCKNRYDKDKPVSFHKFPLTRPSLCKEWEAAVRRKNFKPTKYSSICSEHFTPDCFKRECNNKLLKENAVPTIFLCTEPHDKKEDLLEPQEQLPPPPLPPPVSQVDAAIGLLMPPLQTPVNLSVFCDHNYTVEDTMHQRKRIHQLEQQVEKLRKKLKTAQQRCRRQERQLEKLKEVVHFQKEKDDVSERGYVILPNDYFEIVEVPA [C5F] | 0.125
MVQSKSAYGCKNRYDKDKPVSFHKFPLTRPSLCKEWEAAVRRKNFKPTKYSSICSEHFTPDCFKRECNNKLLKENAVPTIFLCTEPHDKKEDLLEPQEQLPPPPLPPPVSQVDAAIGLLMPPLQTPVNLSVFCDHNYTVEDTMHQRKRIHQLEQQVEKLRKKLKTAQQRCRRQERQLEKLKEVVHFQKEKDDVSERGYVILPNDYFEIVEVPA [C5K] | 0.167
MVQSMSAYGCKNRYDKDKPVSFHKFPLTRPSLCKEWEAAVRRKNFKPTKYSSICSEHFTPDCFKRECNNKLLKENAVPTIFLCTEPHDKKEDLLEPQEQLPPPPLPPPVSQVDAAIGLLMPPLQTPVNLSVFCDHNYTVEDTMHQRKRIHQLEQQVEKLRKKLKTAQQRCRRQERQLEKLKEVVHFQKEKDDVSERGYVILPNDYFEIVEVPA [C5M] | 0.18
MVQSESAYGCKNRYDKDKPVSFHKFPLTRPSLCKEWEAAVRRKNFKPTKYSSICSEHFTPDCFKRECNNKLLKENAVPTIFLCTEPHDKKEDLLEPQEQLPPPPLPPPVSQVDAAIGLLMPPLQTPVNLSVFCDHNYTVEDTMHQRKRIHQLEQQVEKLRKKLKTAQQRCRRQERQLEKLKEVVHFQKEKDDVSERGYVILPNDYFEIVEVPA [C5E] | 0.115
MVQSGSAYGCKNRYDKDKPVSFHKFPLTRPSLCKEWEAAVRRKNFKPTKYSSICSEHFTPDCFKRECNNKLLKENAVPTIFLCTEPHDKKEDLLEPQEQLPPPPLPPPVSQVDAAIGLLMPPLQTPVNLSVFCDHNYTVEDTMHQRKRIHQLEQQVEKLRKKLKTAQQRCRRQERQLEKLKEVVHFQKEKDDVSERGYVILPNDYFEIVEVPA [C5G] | 0.131
MVQSHSAYGCKNRYDKDKPVSFHKFPLTRPSLCKEWEAAVRRKNFKPTKYSSICSEHFTPDCFKRECNNKLLKENAVPTIFLCTEPHDKKEDLLEPQEQLPPPPLPPPVSQVDAAIGLLMPPLQTPVNLSVFCDHNYTVEDTMHQRKRIHQLEQQVEKLRKKLKTAQQRCRRQERQLEKLKEVVHFQKEKDDVSERGYVILPNDYFEIVEVPA [C5H] | 0.127
MVQSLSAYGCKNRYDKDKPVSFHKFPLTRPSLCKEWEAAVRRKNFKPTKYSSICSEHFTPDCFKRECNNKLLKENAVPTIFLCTEPHDKKEDLLEPQEQLPPPPLPPPVSQVDAAIGLLMPPLQTPVNLSVFCDHNYTVEDTMHQRKRIHQLEQQVEKLRKKLKTAQQRCRRQERQLEKLKEVVHFQKEKDDVSERGYVILPNDYFEIVEVPA [C5L] | 0.147
MVQSNSAYGCKNRYDKDKPVSFHKFPLTRPSLCKEWEAAVRRKNFKPTKYSSICSEHFTPDCFKRECNNKLLKENAVPTIFLCTEPHDKKEDLLEPQEQLPPPPLPPPVSQVDAAIGLLMPPLQTPVNLSVFCDHNYTVEDTMHQRKRIHQLEQQVEKLRKKLKTAQQRCRRQERQLEKLKEVVHFQKEKDDVSERGYVILPNDYFEIVEVPA [C5N] | 0.208
MVQSASAYGCKNRYDKDKPVSFHKFPLTRPSLCKEWEAAVRRKNFKPTKYSSICSEHFTPDCFKRECNNKLLKENAVPTIFLCTEPHDKKEDLLEPQEQLPPPPLPPPVSQVDAAIGLLMPPLQTPVNLSVFCDHNYTVEDTMHQRKRIHQLEQQVEKLRKKLKTAQQRCRRQERQLEKLKEVVHFQKEKDDVSERGYVILPNDYFEIVEVPA [C5A] | 0.147
MVQSQSAYGCKNRYDKDKPVSFHKFPLTRPSLCKEWEAAVRRKNFKPTKYSSICSEHFTPDCFKRECNNKLLKENAVPTIFLCTEPHDKKEDLLEPQEQLPPPPLPPPVSQVDAAIGLLMPPLQTPVNLSVFCDHNYTVEDTMHQRKRIHQLEQQVEKLRKKLKTAQQRCRRQERQLEKLKEVVHFQKEKDDVSERGYVILPNDYFEIVEVPA [C5Q] | 0.133
MVQSISAYGCKNRYDKDKPVSFHKFPLTRPSLCKEWEAAVRRKNFKPTKYSSICSEHFTPDCFKRECNNKLLKENAVPTIFLCTEPHDKKEDLLEPQEQLPPPPLPPPVSQVDAAIGLLMPPLQTPVNLSVFCDHNYTVEDTMHQRKRIHQLEQQVEKLRKKLKTAQQRCRRQERQLEKLKEVVHFQKEKDDVSERGYVILPNDYFEIVEVPA [C5I] | 0.0585
MVQSPSAYGCKNRYDKDKPVSFHKFPLTRPSLCKEWEAAVRRKNFKPTKYSSICSEHFTPDCFKRECNNKLLKENAVPTIFLCTEPHDKKEDLLEPQEQLPPPPLPPPVSQVDAAIGLLMPPLQTPVNLSVFCDHNYTVEDTMHQRKRIHQLEQQVEKLRKKLKTAQQRCRRQERQLEKLKEVVHFQKEKDDVSERGYVILPNDYFEIVEVPA [C5P] | 0.0866
MVQSRSAYGCKNRYDKDKPVSFHKFPLTRPSLCKEWEAAVRRKNFKPTKYSSICSEHFTPDCFKRECNNKLLKENAVPTIFLCTEPHDKKEDLLEPQEQLPPPPLPPPVSQVDAAIGLLMPPLQTPVNLSVFCDHNYTVEDTMHQRKRIHQLEQQVEKLRKKLKTAQQRCRRQERQLEKLKEVVHFQKEKDDVSERGYVILPNDYFEIVEVPA [C5R] | 0.132
